Results on 1 molecule are retold here after article PMC3919598.

In this test the target is MUS81-EME1 complex (human) (UniProt Q96NY9).
Chain of UniProt Q96NY9 (Q96NY9 whole entry, chain 1 of 2): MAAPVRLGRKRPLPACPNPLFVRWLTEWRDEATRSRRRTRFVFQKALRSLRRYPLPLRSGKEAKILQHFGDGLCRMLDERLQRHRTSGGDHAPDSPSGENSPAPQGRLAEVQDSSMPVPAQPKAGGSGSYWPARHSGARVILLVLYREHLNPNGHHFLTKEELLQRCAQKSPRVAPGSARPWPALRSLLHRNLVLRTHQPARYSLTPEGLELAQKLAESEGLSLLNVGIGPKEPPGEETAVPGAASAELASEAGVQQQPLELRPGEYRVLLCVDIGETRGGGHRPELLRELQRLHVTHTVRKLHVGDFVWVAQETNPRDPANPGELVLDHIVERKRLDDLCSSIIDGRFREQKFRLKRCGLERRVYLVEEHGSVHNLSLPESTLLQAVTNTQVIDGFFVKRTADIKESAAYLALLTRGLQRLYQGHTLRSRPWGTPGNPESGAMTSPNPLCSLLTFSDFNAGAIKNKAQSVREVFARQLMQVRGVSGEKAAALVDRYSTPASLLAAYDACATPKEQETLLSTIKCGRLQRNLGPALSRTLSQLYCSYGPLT
Chain of UniProt Q96NY9 (Q96AY2 whole entry, chain 2 of 2, further chain): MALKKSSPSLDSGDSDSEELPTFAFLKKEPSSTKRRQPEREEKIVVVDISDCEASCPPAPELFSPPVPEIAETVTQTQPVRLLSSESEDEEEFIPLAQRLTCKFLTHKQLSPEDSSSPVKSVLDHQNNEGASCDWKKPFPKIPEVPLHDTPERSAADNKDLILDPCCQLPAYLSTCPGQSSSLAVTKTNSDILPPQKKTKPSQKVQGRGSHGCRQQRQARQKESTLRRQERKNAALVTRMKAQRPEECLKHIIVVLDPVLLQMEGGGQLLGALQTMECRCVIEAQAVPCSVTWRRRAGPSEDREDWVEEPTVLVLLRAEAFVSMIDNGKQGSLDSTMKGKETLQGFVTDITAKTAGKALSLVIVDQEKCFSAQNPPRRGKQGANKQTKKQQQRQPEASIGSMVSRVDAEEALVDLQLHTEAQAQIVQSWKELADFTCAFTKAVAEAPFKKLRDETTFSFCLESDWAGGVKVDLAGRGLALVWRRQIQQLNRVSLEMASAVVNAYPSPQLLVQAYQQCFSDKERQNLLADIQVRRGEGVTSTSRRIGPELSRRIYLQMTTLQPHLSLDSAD

B1: Fanconi anemia complementation group A protein (FANCA) (natural protein)
chain: MSDSWVPNSASGQDPGGRRRAWAELLAGRVKREKYNPERAQKLKESAVRLLRSHQDLNALLLEVEGPLCKKLSLSKVIDCDSSEAYANHSSSFIGSALQDQASRLGVPVGILSAGMVASSVGQICTAPAETSHPVLLTVEQRKKLSSLLEFAQYLLAHSMFSRLSFCQELWKIQSSLLLEAVWHLHVQGIVSLQELLESHPDMHAVGSWLFRNLCCLCEQMEASCQHADVARAMLSDFVQMFVLRGFQKNSDLRRTVEPEKMPQVTVDVLQRMLIFALDALAAGVQEESSTHKIVRCWFGVFSGHTLGSVISTDPLKRFFSHTLTQILTHSPVLKASDAVQMQREWSFARTHPLLTSLYRRLFVMLSAEELVGHLQEVLETQEVHWQRVLSFVSALVVCFPEAQQLLEDWVARLMAQAFESCQLDSMVTAFLVVRQAALEGPSAFLSYADWFKASFGSTRGYHGCSKKALVFLFTFLSELVPFESPRYLQVHILHPPLVPGKYRSLLTDYISLAKTRLADLKVSIENMGLYEDLSSAGDITEPHSQALQDVEKAIMVFEHTGNIPVTVMEASIFRRPYYVSHFLPALLTPRVLPKVPDSRVAFIESLKRADKIPPSLYSTYCQACSAAEEKPEDAALGVRAEPNSAEEPLGQLTAALGELRASMTDPSQRDVISAQVAVISERLRAVLGHNEDDSSVEISKIQLSINTPRLEPREHMAVDLLLTSFCQNLMAASSVAPPERQGPWAALFVRTMCGRVLPAVLTRLCQLLRHQGPSLSAPHVLGLAALAVHLGESRSALPEVDVGPPAPGAGLPVPALFDSLLTCRTRDSLFFCLKFCTAAISYSLCKFSSQSRDTLCSCLSPGLIKKFQFLMFRLFSEARQPLSEEDVASLSWRPLHLPSADWQRAALSLWTHRTFREVLKEEDVHLTYQDWLHLELEIQPEADALSDTERQDFHQWAIHEHFLPESSASGGCDGDLQAACTILVNALMDFHQSSRSYDHSENSDLVFGGRTGNEDIISRLQEMVADLELQQDLIVPLGHTPSQEHFLFEIFRRRLQALTSGWSVAASLQRQRELLMYKRILLRLPSSVLCGSSFQAEQPITARCEQFFHLVNSEMRNFCSHGGALTQDITAHFFRGLLNACLRSRDPSLMVDFILAKCQTKCPLILTSALVWWPSLEPVLLCRWRRHCQSPLPRELQKLQEGRQFASDFLSPEAASPAPNPDWLSAAALHFAIQQVREENIRKQLKKLDCEREELLVFLFFFSLMGLLSSHLTSNSTTDLPKAFHVCAAILECLEKRKISWLALFQLTESDLRLGRLLLRVAPDQHTRLLPFAFYSLLSYFHEDAAIREEAFLHVAVDMYLKLVQLFVAGDTSTVSPPAGRSLELKGQGNPVELITKARLFLLQLIPRCPKKSFSHVAELLADRGDCDPEVSAALQSRQQAAPDADLSQEPHLF
As to B1, the MUS81-EME1-mediated incision of psoralen ICL-damaged 3' ssDNA branch substrate (1.5 nM MUS81-EME1; FANCA 0-20 nM), fold stimulation was 14 fold; the MUS81-EME1-mediated incision of undamaged DNA (1.5 nM MUS81-EME1; FANCA 0-20 nM): enhanced up to 5 nM FANCA (Phase I), inhibited from 10 to 20 nM and abrogated at 20 nM FANCA (Phase II) was 3 fold.
